Experimental findings from the supplement of paper PMC9112550, “Optimization of the antimicrobial peptide Bac7 by deep mutational scanning” (BMC Biology, 2022) are described below.

The test system of the data set is Escherichia coli TOP10. As to the kind of experiment: shrunken log2 fold change of peptide-encoding DNA abundance (4.5 h post-induction vs induction); higher = less antimicrobial activity (less host growth inhibition). The following applies: time post-induction: 4.5 h; library: site-saturation at positions 5, 18, 19, 20.
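Further: peptides expressed intracellularly from a pBAD plasmid library in pooled LB shake-flask culture, induced with 0.3% L-arabinose, DNA abundance read by NGS, three biological replicates, DESeq2 with apeglm shrinkage.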

Consider RRIRCRPPRLPRPRPRPDDEPRP, for which the “shrunken log2 fold change” value was determined as 0.33.

In the case of RRIRLRPPRLPRPRPRPMQVPRP, the “shrunken log2 fold change” value is -0.0149.

With RRIRARPPRLPRPRPRPKDLPRP, the “shrunken log2 fold change” value was -0.0598.

As for RRIRMRPPRLPRPRPRPCSPPRP, the “shrunken log2 fold change” value was found to be 0.0324.

In the case of RRIRYRPPRLPRPRPRPHAPPRP, the “shrunken log2 fold change” value was -0.0159.

For RRIRLRPPRLPRPRPRPCMGPRP, the “shrunken log2 fold change” value is -0.085.

Consider RRIRYRPPRLPRPRPRPKYIPRP, for which the “shrunken log2 fold change” value is -0.665.

As for RRIRRRPPRLPRPRPRPVTSPRP, the “shrunken log2 fold change” value was 0.0312.

As for RRIRVRPPRLPRPRPRPTMTPRP, the “shrunken log2 fold change” value is 0.11.

In the case of RRIRIRPPRLPRPRPRPYTQPRP, the “shrunken log2 fold change” value is -1.02.

Turning to RRIRMRPPRLPRPRPRPPACPRP, the “shrunken log2 fold change” value was 1.22.

As to RRIRARPPRLPRPRPRPNKFPRP, the “shrunken log2 fold change” value was -0.3.

RRIRKRPPRLPRPRPRPAGCPRP: the “shrunken log2 fold change” value is 0.702.

In the case of RRIRGRPPRLPRPRPRPRWGPRP, the “shrunken log2 fold change” value was found to be 0.852.

Take RRIRYRPPRLPRPRPRPGFMPRP: the “shrunken log2 fold change” value is -0.279.

With RRIRLRPPRLPRPRPRPGQFPRP, the “shrunken log2 fold change” value was determined as 0.16.

Turning to RRIRTRPPRLPRPRPRPDNGPRP, the “shrunken log2 fold change” value was -0.225.

Regarding RRIRQRPPRLPRPRPRPAFKPRP, the “shrunken log2 fold change” value was -0.015.

As for RRIRHRPPRLPRPRPRPVHAPRP, the “shrunken log2 fold change” value was found to be 0.346.

RRIRSRPPRLPRPRPRPAPYPRP: the “shrunken log2 fold change” value was 0.265.

On to RRIRVRPPRLPRPRPRPTAWPRP, for which the “shrunken log2 fold change” value worked out at 0.145.

Turning to RRIRMRPPRLPRPRPRPWFEPRP, the “shrunken log2 fold change” value is -0.13.

Turning to RRIRSRPPRLPRPRPRPNRSPRP, the “shrunken log2 fold change” value was -0.0737.

As for RRIRWRPPRLPRPRPRPAGVPRP, the “shrunken log2 fold change” value stood at 0.66.

Take RRIRDRPPRLPRPRPRPAVWPRP: the “shrunken log2 fold change” value came to 1.19.

As to RRIRCRPPRLPRPRPRPFCMPRP, the “shrunken log2 fold change” value turned out to be 0.174.

For RRIRRRPPRLPRPRPRPNVPPRP, the “shrunken log2 fold change” value was found to be 0.032.

Consider RRIRERPPRLPRPRPRPDPMPRP, for which the “shrunken log2 fold change” value was -0.0562.

For RRIRHRPPRLPRPRPRPYRLPRP, the “shrunken log2 fold change” value is -0.302.

Turning to RRIRPRPPRLPRPRPRPIWSPRP, the “shrunken log2 fold change” value was determined as 0.0653.

Consider RRIRLRPPRLPRPRPRPEQKPRP, for which the “shrunken log2 fold change” value came to 0.0115.

For the sequence RRIRMRPPRLPRPRPRPQFYPRP, the “shrunken log2 fold change” value was -0.263.

Consider RRIRQRPPRLPRPRPRPPQGPRP, for which the “shrunken log2 fold change” value is 0.434.

As to RRIRNRPPRLPRPRPRPSLNPRP, the “shrunken log2 fold change” value is -0.335.

With RRIRCRPPRLPRPRPRPWNDPRP, the “shrunken log2 fold change” value stood at 0.00383.

Consider RRIRARPPRLPRPRPRPTPVPRP, for which the “shrunken log2 fold change” value turned out to be 0.696.

On to RRIRNRPPRLPRPRPRPAPRPRP, for which the “shrunken log2 fold change” value was determined as 1.6.

For the sequence RRIRLRPPRLPRPRPRPNAMPRP, the “shrunken log2 fold change” value is -0.16.

RRIRDRPPRLPRPRPRPFSEPRP: the “shrunken log2 fold change” value is -0.0447.

As for RRIRCRPPRLPRPRPRPPNIPRP, the “shrunken log2 fold change” value is -0.573.

As to RRIRGRPPRLPRPRPRPCRDPRP, the “shrunken log2 fold change” value was 0.128.

As for RRIRNRPPRLPRPRPRPDAWPRP, the “shrunken log2 fold change” value came to 0.0835.

RRIRTRPPRLPRPRPRPEFQPRP: the “shrunken log2 fold change” value was -0.161.

Take RRIRKRPPRLPRPRPRPKKIPRP: the “shrunken log2 fold change” value is 0.431.

On to RRIRMRPPRLPRPRPRPICLPRP, for which the “shrunken log2 fold change” value is -0.322.

With RRIRDRPPRLPRPRPRPEGIPRP, the “shrunken log2 fold change” value is -0.0215.

As for RRIRGRPPRLPRPRPRPVYSPRP, the “shrunken log2 fold change” value is -0.36.

Take RRIRKRPPRLPRPRPRPMYYPRP: the “shrunken log2 fold change” value was -0.148.

As to RRIRPRPPRLPRPRPRPIQEPRP, the “shrunken log2 fold change” value is -0.019.

RRIRRRPPRLPRPRPRPTCMPRP: the “shrunken log2 fold change” value stood at 0.315.

Regarding RRIRVRPPRLPRPRPRPWHPPRP, the “shrunken log2 fold change” value was -0.0956.

For RRIRTRPPRLPRPRPRPMLIPRP, the “shrunken log2 fold change” value came to 0.0601.

Turning to RRIRCRPPRLPRPRPRPNYSPRP, the “shrunken log2 fold change” value was -0.522.

Turning to RRIRTRPPRLPRPRPRPPQQPRP, the “shrunken log2 fold change” value stood at 0.211.

As to RRIRARPPRLPRPRPRPPMRPRP, the “shrunken log2 fold change” value was found to be 1.26.

RRIRSRPPRLPRPRPRPHPWPRP: the “shrunken log2 fold change” value was -0.0172.

Turning to RRIRWRPPRLPRPRPRPDDTPRP, the “shrunken log2 fold change” value was 0.222.

Consider RRIRQRPPRLPRPRPRPWLFPRP, for which the “shrunken log2 fold change” value turned out to be 0.0523.

Regarding RRIRKRPPRLPRPRPRPTLFPRP, the “shrunken log2 fold change” value is 0.111.

RRIRCRPPRLPRPRPRPADVPRP: the “shrunken log2 fold change” value is -0.391.

For RRIRGRPPRLPRPRPRPQCSPRP, the “shrunken log2 fold change” value was -0.0401.

Consider RRIRQRPPRLPRPRPRPAMKPRP, for which the “shrunken log2 fold change” value was -0.204.

Turning to RRIRHRPPRLPRPRPRPYATPRP, the “shrunken log2 fold change” value is -0.172.

Turning to RRIRIRPPRLPRPRPRPVNHPRP, the “shrunken log2 fold change” value was -0.288.

For the sequence RRIRPRPPRLPRPRPRPTCGPRP, the “shrunken log2 fold change” value was -0.0302.

As for RRIRGRPPRLPRPRPRPRQQPRP, the “shrunken log2 fold change” value came out at 0.614.

Turning to RRIRHRPPRLPRPRPRPDKVPRP, the “shrunken log2 fold change” value worked out at 0.1.

In the case of RRIRYRPPRLPRPRPRPKCHPRP, the “shrunken log2 fold change” value was -0.139.

For the sequence RRIRERPPRLPRPRPRPYTLPRP, the “shrunken log2 fold change” value is -0.338.

RRIRYRPPRLPRPRPRPPNWPRP: the “shrunken log2 fold change” value is -0.00249.

As to RRIRGRPPRLPRPRPRPGLIPRP, the “shrunken log2 fold change” value was -0.0196.

Consider RRIRGRPPRLPRPRPRPTGRPRP, for which the “shrunken log2 fold change” value turned out to be 0.907.

Regarding RRIRPRPPRLPRPRPRPQIVPRP, the “shrunken log2 fold change” value is -0.594.

As for RRIRHRPPRLPRPRPRPADTPRP, the “shrunken log2 fold change” value was -0.406.

Regarding RRIRMRPPRLPRPRPRPTWLPRP, the “shrunken log2 fold change” value came to 0.266.

As for RRIRHRPPRLPRPRPRPLCIPRP, the “shrunken log2 fold change” value is -0.165.

RRIRRRPPRLPRPRPRPTELPRP: the “shrunken log2 fold change” value is 0.42.

As to RRIRTRPPRLPRPRPRPGIPPRP, the “shrunken log2 fold change” value was -0.394.

Regarding RRIRDRPPRLPRPRPRPLSEPRP, the “shrunken log2 fold change” value was 0.111.

With RRIRLRPPRLPRPRPRPMHDPRP, the “shrunken log2 fold change” value was -0.134.

In the case of RRIRMRPPRLPRPRPRPQTSPRP, the “shrunken log2 fold change” value was determined as 0.339.

Turning to RRIRPRPPRLPRPRPRPEQPPRP, the “shrunken log2 fold change” value came to 0.184.

On to RRIRNRPPRLPRPRPRPSNQPRP, for which the “shrunken log2 fold change” value is -0.299.

In the case of RRIRGRPPRLPRPRPRPRLAPRP, the “shrunken log2 fold change” value is 1.35.

With RRIRLRPPRLPRPRPRPQGVPRP, the “shrunken log2 fold change” value was -0.0316.

RRIRWRPPRLPRPRPRPIKYPRP: the “shrunken log2 fold change” value was -0.744.

Turning to RRIRFRPPRLPRPRPRPVSTPRP, the “shrunken log2 fold change” value was -0.476.

For the sequence RRIRIRPPRLPRPRPRPQGEPRP, the “shrunken log2 fold change” value was -0.0606.

Take RRIRARPPRLPRPRPRPWHYPRP: the “shrunken log2 fold change” value is -0.253.

For the sequence RRIRIRPPRLPRPRPRPPRSPRP, the “shrunken log2 fold change” value was 0.272.

For the sequence RRIRFRPPRLPRPRPRPNYGPRP, the “shrunken log2 fold change” value is -0.125.

For the sequence RRIRMRPPRLPRPRPRPEVTPRP, the “shrunken log2 fold change” value turned out to be 0.053.

Take RRIRIRPPRLPRPRPRPHWKPRP: the “shrunken log2 fold change” value is -0.0691.

As for RRIRTRPPRLPRPRPRPFLAPRP, the “shrunken log2 fold change” value is -0.0751.

Turning to RRIRSRPPRLPRPRPRPSQSPRP, the “shrunken log2 fold change” value was -0.242.

As for RRIRKRPPRLPRPRPRPLMMPRP, the “shrunken log2 fold change” value stood at 0.207.

As to RRIRKRPPRLPRPRPRPHQAPRP, the “shrunken log2 fold change” value is -0.137.

Regarding RRIRERPPRLPRPRPRPYQTPRP, the “shrunken log2 fold change” value is -0.135.

For RRIRDRPPRLPRPRPRPFWMPRP, the “shrunken log2 fold change” value came out at 0.0871.

Consider RRIRFRPPRLPRPRPRPLAEPRP, for which the “shrunken log2 fold change” value is -0.0472.

In the case of RRIRSRPPRLPRPRPRPAEKPRP, the “shrunken log2 fold change” value was found to be 0.0409.

For the sequence RRIRPRPPRLPRPRPRPPDCPRP, the “shrunken log2 fold change” value was -0.0878.

For the sequence RRIRIRPPRLPRPRPRPQGYPRP, the “shrunken log2 fold change” value was -0.0157.

Take RRIRHRPPRLPRPRPRPIMFPRP: the “shrunken log2 fold change” value is -0.439.

For RRIRSRPPRLPRPRPRPWTAPRP, the “shrunken log2 fold change” value was -0.22.

For RRIRRRPPRLPRPRPRPWTLPRP, the “shrunken log2 fold change” value was -0.195.

RRIRERPPRLPRPRPRPLKAPRP: the “shrunken log2 fold change” value was determined as 0.225.

On to RRIRERPPRLPRPRPRPFKAPRP, for which the “shrunken log2 fold change” value amounted to 2.45.

Take RRIRKRPPRLPRPRPRPNVGPRP: the “shrunken log2 fold change” value was -0.0151.

As to RRIRCRPPRLPRPRPRPTCMPRP, the “shrunken log2 fold change” value is 0.173.

Take RRIRARPPRLPRPRPRPRLQPRP: the “shrunken log2 fold change” value stood at 0.637.

For RRIRWRPPRLPRPRPRPAHVPRP, the “shrunken log2 fold change” value is -0.0191.

Consider RRIRWRPPRLPRPRPRPFYWPRP, for which the “shrunken log2 fold change” value is -0.151.

For RRIRGRPPRLPRPRPRPPYIPRP, the “shrunken log2 fold change” value is -0.271.

For RRIRKRPPRLPRPRPRPSDIPRP, the “shrunken log2 fold change” value was 1.14.

Take RRIRRRPPRLPRPRPRPDPWPRP: the “shrunken log2 fold change” value amounted to 0.335.

Regarding RRIRPRPPRLPRPRPRPEENPRP, the “shrunken log2 fold change” value is 0.163.

In the case of RRIRPRPPRLPRPRPRPTVDPRP, the “shrunken log2 fold change” value was determined as 0.0336.

On to RRIRVRPPRLPRPRPRPRILPRP, for which the “shrunken log2 fold change” value was -0.412.

In the case of RRIRARPPRLPRPRPRPVAKPRP, the “shrunken log2 fold change” value came to 0.577.

For RRIRYRPPRLPRPRPRPRIMPRP, the “shrunken log2 fold change” value was -1.06.

Regarding RRIRMRPPRLPRPRPRPTFHPRP, the “shrunken log2 fold change” value is -0.00995.

For the sequence RRIRHRPPRLPRPRPRPTMTPRP, the “shrunken log2 fold change” value was -0.29.

RRIRLRPPRLPRPRPRPPMYPRP: the “shrunken log2 fold change” value was -0.093.

Take RRIRLRPPRLPRPRPRPEGTPRP: the “shrunken log2 fold change” value was found to be 0.241.
